For test [1], the target named is T1, Human IL-2R beta/CD122 Protein, Fc Tag (human, UniProt P14784 27-239).
T1 construct: Bought protein coated on the ELISA plate; also called Cat. No. ILB-H5253, Acro Biosystems; not shown: Fc tag of the bought protein
T1 sequence (looked up): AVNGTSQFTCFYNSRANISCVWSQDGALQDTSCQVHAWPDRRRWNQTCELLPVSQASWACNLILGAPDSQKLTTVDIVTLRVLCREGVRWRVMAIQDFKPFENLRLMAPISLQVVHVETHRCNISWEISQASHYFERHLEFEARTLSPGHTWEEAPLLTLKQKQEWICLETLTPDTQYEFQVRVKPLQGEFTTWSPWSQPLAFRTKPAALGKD
Description: ELISA, plate coated with 1 µg/ml CD122 Fc tag protein, binder from 0.5 µg/ml in 2-fold dilutions, anti-human kappa-HRP. As for the experimental part: (§1) Binding of HuABC2-CTLA4 and HuABC2-CTLA4YE to human CD122, CD80 and CD86 was analyzed by ELISA. Wells of an ELISA plate were coated with 1 μg/ml of either CD122 (Human IL-2R beta/CD122 Protein, Fc Tag; Cat. No. ILB-H5253, Acro Biosystems, Newark, Del.), CD80 (Human B7-1/CD80 Protein, Mouse IgG2a Tag; Cat. No. B71-H52A4, Acro Biosystems) or CD86 (Human B7-2/CD86 Protein, Fc Tag; Cat. No. CD6-H5257, Acro Biosystems) in PBS. After blocking with Blocking Buffer and washing the wells with Wash Buffer, transiently expressed HuABC2-CTLA4 and HuABC2-CTLA4YE at 0.5 μg/ml and serial 2-fold dilutions in ELISA Buffer were applied to the wells in duplicates. Purified HuABC2 at 0.5 μg/mland serial 2-fold dilutions was used as a control. After incubation for 1 hr at room temperature and washing with Wash Buffer, bound antibodies were detected using HRP-conjugated goat anti-human kappa chain polyclonal antibody. After incubation for 30 min and washing with Wash Buffer, color development was initiated by adding ABTS substrate and stopped with 2% oxalic acid. Absorbance was read at 405 nm.
In general terms: ELISA stands for enzyme-linked immunosorbent assay.

The target of test [2] is T2, Human B7-1/CD80 Protein, Mouse IgG2a Tag (human, UniProt P33681 35-242).
T2 construct: Bought protein coated on the ELISA plate; also called Cat. No. B71-H52A4, Acro Biosystems; not shown: mouse IgG2a tag of the bought protein
T2 sequence (looked up): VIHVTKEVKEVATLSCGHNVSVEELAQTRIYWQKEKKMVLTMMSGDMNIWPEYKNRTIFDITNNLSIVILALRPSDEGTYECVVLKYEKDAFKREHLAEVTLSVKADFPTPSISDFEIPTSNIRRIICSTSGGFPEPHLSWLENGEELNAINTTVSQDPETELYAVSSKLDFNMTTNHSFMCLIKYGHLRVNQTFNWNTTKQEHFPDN
Description: ELISA, plate coated with 1 µg/ml CD80 mouse IgG2a tag protein, anti-human kappa-HRP detection. How it is done:
as §1

Test [3] addresses T3, Human B7-2/CD86 Protein, Fc Tag (human, UniProt P42081 24-247).
T3 construct: Bought protein coated on the ELISA plate; also called Cat. No. CD6-H5257, Acro Biosystems; not shown: Fc tag of the bought protein
T3 sequence (looked up): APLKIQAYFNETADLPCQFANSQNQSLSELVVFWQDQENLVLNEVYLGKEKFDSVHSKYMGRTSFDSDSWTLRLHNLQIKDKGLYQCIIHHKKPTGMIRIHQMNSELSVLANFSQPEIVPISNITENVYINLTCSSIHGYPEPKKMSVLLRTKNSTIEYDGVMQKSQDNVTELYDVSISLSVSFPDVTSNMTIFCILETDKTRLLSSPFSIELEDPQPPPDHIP
Description: ELISA, plate coated with 1 µg/ml CD86 Fc tag protein, anti-human kappa-HRP detection. As for the experimental part:
as §1

B1: HuABC2 (antibody, human IgG1, kappa, V domains shown)
VH: EVQLVESGGGLVQPGGSLRLSCAASGFTFSDFYMEWVRQAPGKGLEWIAASRNKANDYTTEYSASVKGRFIVSRDDSKNSLYLQMNSLKTEDTAVYYCARSYYRYDGMDYWGQGTTVTVSS
VL: EIVLTQSPATLSLSPGERATLSCSAISSVSYMYWYQQKPGQAPRLLIYDTSNLVSGVPARFSGSGSGTDYTLTISSLEPEDFAVYYCQQWNTYPYTFGGGTKVEIKR
notes: Human IgG1/kappa, wild-type Fc, expressed from pHuABC2p in CHO-K1 and purified on protein A; also called humanized anti-CD122 IgG1/kappa monoclonal antibody
With B1, the binding result in test [1] is “binds”; in test [2] it was “no binding (tested: 0.5 µg/ml and serial 2-fold dilutions)”; in test [3] it was “no binding (tested: 0.5 µg/ml and serial 2-fold dilutions)”.

These data come from US20220306753A1 (JN BIOSCIENCES, published 2022).
